The values that follow come from patent US20170073395A1 (Pfizer, published 2017).

The target of one test is T1, mTNFa (mouse, UniProt P06804 80-235).
T1 construct: Non-target panel protein
T1 sequence (looked up): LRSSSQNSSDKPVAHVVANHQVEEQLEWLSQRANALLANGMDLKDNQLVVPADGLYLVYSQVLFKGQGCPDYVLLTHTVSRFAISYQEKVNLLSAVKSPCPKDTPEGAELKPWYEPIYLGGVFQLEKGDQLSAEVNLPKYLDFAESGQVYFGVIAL
Put plainly: Biacore specificity assay: IgG immobilised (about 300 RU), antigen injected at 500 nM. Here is the method: (§1) Biacore specificity analyses were performed using the T-200 biosensor, series S CM5 chips, an amine-coupling kit, 10 mM sodium acetate immobilization buffer at pH 5.0, 10× HBS-P running buffer and NaOH for regeneration (GE Healthcare). A predefined ligand (IgG) immobilization program was set up to immobilize approximately 300 Response Units (RU) on the flow cell for each IgG to be tested. For Anti-RAGE and anti-A33, a panel of fully-purified recombinant target and non-target antigens were diluted in HBS-P running buffer to a final concentration of 500 nM. Four groups of antigens were examined, including: cell membrane proteins (mTRKB, hTRKB, mEGFR, hEGFR, hFceR1, hIL-21R, mICAM1, mICAM2, hICAM1, hCD33, hLAMP-1, hLOX-1, and), soluble signaling molecules (mTNFa, hVEGF, hCXCL13) and albumins (BSA, HSA and MSA). These proteins were injected at 50 μl/min for 3 min, followed by a 5 sec pulse of 20 mM NaOH for regeneration of the chip surface. For pTau, a series of pTau-derived phosphorylated and non-phosphorylated peptides were flowed, as in Shih et al.³. All sensorgrams were analyzed using the Biacore T-200 evaluation software.

For another test, the target named is T2, mEGFR (mouse, UniProt Q01279 25-647, limits assumed).
T2 construct: Non-target panel protein
Described as above. As for the experimental part: as §1

Another test deals with T3, BSA (UniProt P02769 25-607).
T3 construct: Non-target panel protein (albumins)
T3 sequence (P02769 25-607 limits assumed): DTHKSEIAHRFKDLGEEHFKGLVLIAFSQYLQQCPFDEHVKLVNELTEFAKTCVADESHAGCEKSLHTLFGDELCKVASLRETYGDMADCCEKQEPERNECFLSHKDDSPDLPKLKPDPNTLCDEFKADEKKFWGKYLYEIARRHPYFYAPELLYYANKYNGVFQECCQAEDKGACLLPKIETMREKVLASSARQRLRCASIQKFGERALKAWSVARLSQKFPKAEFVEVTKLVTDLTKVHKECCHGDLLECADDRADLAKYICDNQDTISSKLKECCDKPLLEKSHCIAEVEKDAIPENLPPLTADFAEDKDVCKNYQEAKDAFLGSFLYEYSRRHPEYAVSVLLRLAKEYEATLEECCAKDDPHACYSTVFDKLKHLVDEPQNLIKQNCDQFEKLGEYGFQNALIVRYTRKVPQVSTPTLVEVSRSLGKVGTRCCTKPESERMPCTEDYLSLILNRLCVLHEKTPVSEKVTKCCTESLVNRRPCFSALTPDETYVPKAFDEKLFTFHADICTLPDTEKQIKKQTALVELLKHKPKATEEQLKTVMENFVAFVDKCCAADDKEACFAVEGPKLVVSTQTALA
Described as above. Here is the method:
as §1

The target in another test is T4, hIL-21R (human, UniProt Q9HBE5 20-232, limits assumed).
T4 construct: Non-target panel protein
T4 sequence (Q9HBE5 20-232 limits assumed): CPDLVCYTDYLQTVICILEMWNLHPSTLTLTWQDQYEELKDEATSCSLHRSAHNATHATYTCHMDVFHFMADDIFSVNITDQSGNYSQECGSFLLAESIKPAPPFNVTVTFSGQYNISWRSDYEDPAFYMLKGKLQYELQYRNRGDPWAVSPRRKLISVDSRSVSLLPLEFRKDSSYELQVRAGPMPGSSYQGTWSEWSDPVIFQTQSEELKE
Described as above. Here is the method: as §1

The target in a further test is T5, mICAM1 (mouse, UniProt P13597 28-485, limits assumed).
T5 construct: Non-target panel protein
T5 sequence (P13597 28-485 limits assumed): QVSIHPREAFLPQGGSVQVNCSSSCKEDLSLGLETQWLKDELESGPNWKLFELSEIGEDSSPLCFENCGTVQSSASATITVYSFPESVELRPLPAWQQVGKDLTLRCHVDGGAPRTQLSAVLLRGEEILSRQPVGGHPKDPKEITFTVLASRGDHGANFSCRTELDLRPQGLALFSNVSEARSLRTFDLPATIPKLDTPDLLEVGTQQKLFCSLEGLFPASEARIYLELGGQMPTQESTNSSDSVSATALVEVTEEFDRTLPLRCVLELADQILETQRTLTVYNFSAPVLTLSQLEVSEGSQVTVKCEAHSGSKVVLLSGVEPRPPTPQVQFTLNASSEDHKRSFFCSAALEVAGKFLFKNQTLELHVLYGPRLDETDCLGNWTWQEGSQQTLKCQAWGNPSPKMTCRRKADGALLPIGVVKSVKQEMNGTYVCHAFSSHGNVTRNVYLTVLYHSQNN
The test is described as above. Here is the method:
as §1

The target in a further test is T6, hCD33 (human, UniProt P20138 18-259, limits assumed).
T6 construct: Non-target panel protein
T6 sequence (P20138 18-259 limits assumed): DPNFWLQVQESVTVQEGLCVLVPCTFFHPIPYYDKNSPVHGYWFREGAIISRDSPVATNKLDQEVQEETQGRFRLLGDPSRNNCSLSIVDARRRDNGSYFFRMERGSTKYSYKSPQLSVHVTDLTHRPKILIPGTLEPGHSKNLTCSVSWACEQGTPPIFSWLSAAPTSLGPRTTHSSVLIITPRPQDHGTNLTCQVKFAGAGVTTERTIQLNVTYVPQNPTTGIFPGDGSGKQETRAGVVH
Described as above. As for the experimental part:
as §1

Another test deals with T7, mICAM2 (mouse, UniProt P35330 23-222, limits assumed).
T7 construct: Non-target panel protein
T7 sequence (looked up): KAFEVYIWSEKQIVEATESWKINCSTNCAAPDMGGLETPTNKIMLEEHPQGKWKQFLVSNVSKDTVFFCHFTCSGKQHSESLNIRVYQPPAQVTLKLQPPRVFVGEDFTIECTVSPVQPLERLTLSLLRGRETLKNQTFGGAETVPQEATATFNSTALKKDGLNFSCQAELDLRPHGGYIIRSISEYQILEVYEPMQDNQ
Described as above. As for the experimental part:
as §1

Test [1] has as its target T8, RAGE (cognate target of the anti-RAGE antibodies; species not stated at the place) (Homo sapiens (Human), UniProt Q15109 23-342).
T8 construct: not shown: Carrier or tag of the soluble construct
Put plainly: HTRF epitope competition, IgG titrated; competitor parental IgG (Par-RAGE).

T8 sequence (Q15109 23-342 limits assumed): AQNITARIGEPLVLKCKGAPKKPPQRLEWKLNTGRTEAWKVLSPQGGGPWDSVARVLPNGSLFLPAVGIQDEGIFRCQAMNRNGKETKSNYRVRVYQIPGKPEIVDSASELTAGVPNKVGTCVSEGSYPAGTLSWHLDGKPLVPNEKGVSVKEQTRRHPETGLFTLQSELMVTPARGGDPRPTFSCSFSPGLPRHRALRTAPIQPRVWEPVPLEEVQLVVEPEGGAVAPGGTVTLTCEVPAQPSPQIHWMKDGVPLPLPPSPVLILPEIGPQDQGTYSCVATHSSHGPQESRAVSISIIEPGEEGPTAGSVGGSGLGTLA

B1: C7-ABS-RAGE IgG (human IgG1) (antibody, V domains shown)
VH: EVQLVESGGGLVQPGGSLRLSCAASGFTFSSYWMSWVRQAPGKGLEWVASIDQDGSNKYYPDSVKGRFTISRDNAKNSLYLQMNSLRAEDTAVYYCARGGDITTGLDYWGQGTLVTVSS
VL: DIQMTQSPSSLSASVGDRVTITCRASQSIGSYLNWYQQKPGKAPKLLIYRASSLASGVPSRFSGSGSGTDFTLTISSLQPEDFATYYCLEFDEHPLTFGGGTKVEIK
notes: Human IgG1 format
Consider B1, for which the binding result with mTNFa, in the test with mEGFR, with BSA, with hIL-21R, in the test with mICAM1 and in the test with hCD33 was “no binding (tested: 500 nM)” in each case. Further, the binding result in the test with mICAM2 is on record as “no binding (tested: 500 nM)”. The IC50 (as a rule, the concentration that gives 50% inhibition) in test [1] turned out to be 5.8 nM.
